Results as given in US20200239541A1 (XYPHOS BIOSCIENCES, published 2020).

Columns and labels:
Experiment in all cases: ELISA, ligand-Fc coated, biotinylated NKG2D titrated
[1] = biological target: T1, Y152A mutant NKG2D ectodomain (His-avitag, biotinylated) (human)
T1 construct: also called Y152A non-natural NKG2D receptor; not shown: N-terminal His-avitag
T1 chain: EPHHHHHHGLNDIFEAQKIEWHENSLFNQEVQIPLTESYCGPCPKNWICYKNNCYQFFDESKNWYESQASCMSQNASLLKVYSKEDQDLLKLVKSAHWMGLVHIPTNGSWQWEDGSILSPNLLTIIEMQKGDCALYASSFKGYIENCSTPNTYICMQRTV
Procedure: (§1) In addition to purifying the above 3 Fc-fusion proteins NKG2D ligand-Fc fusion proteins MICB-Fc, ULBP1-Fc, ULBP2-Fc, ULBP3-Fc, and ULBP4-Fc were purchased from R&D Systems, Inc. (Minneapolis, Minn.). Binding of the different α1-α2 domain-Fc fusions to both natural and non-natural NKG2D ectodomain proteins was analyzed using a plate-based ELISA method. All of the natural and non-natural α1-α2 domain-Fc fusions were coated overnight at 4° C. onto separate wells of Maxisorp 96 well plates using a coating concentration of 2 μg/ml in phosphate-buffered saline (PBS). The plates were washed 3-times in PBS/0.05% Tween20 at 20-22° C., and blocked with 0.5% bovine serum albumin for 2 hours. The biotinylated natural and non-natural NKG2D receptor proteins were titrated against the plate-bound NKG2D ligands for 2 hours at 20-22° C., washed 3 times with PBS/0.05% Tween20 at 20-22° C., and the bound NKG2D proteins subsequently detected using a streptavidin-HRP secondary detection step and developed with 1-Step Ultra TMB Elisa.

[2] = biological target: T2, Y199A mutant NKG2D ectodomain (His-avitag, biotinylated) (human)
T2 construct: not shown: N-terminal His-avitag
T2 chain: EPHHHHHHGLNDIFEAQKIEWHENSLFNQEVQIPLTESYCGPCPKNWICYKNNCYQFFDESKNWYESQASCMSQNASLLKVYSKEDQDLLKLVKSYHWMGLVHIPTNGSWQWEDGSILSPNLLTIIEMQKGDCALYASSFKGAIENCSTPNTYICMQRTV
Procedure: as §1

[3] = biological target: T3, double Y152A plus Y199A mutant NKG2D ectodomain (His-avitag, biotinylated) (human)
T3 construct: not shown: N-terminal His-avitag
T3 chain: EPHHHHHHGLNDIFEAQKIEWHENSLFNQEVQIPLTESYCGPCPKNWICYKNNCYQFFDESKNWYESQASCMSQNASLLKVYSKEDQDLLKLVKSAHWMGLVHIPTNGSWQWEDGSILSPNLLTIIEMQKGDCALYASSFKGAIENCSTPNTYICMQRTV
Procedure: as §1

Measured: binding result

B1: MICA-Fc (α1-α2-α3-Fc fusion, made in 293 cells) (Fc fusion)
chain: EPHSLRYNLTVLSWDGSVQSGFLTEVHLDGQPFLRCDRQKCRAKPQGQWAEDVLGNKTWDRETRDLTGNGKDLRMTLAHIKDQKEGLHSLQEIRVCEIHEDNSTRSSQHFYYDGELFLSQNLETKEWTMPQSSRAQTLAMNVRNFLKEDAMKTKTHYHAMHADCLQELRRYLKSGVVLRRTVPPMVNVTRSEASEGNITVTCRASGFYPWNITLSWRQDGVSLSHDTQQWGDVLPDGNGTYQTWVATRISQGEEQRFTCYMEHSGNHSTHPVPSGKIEGRMDPKSCDKTHTCPPCPAPELLGGPSVFLFPPKPKDTLMISRTPEVTCVVVDVSHEDPEVKFNWYVDGVEVHNAKTKPREEQYNSTYRVVSVLTVLHQDWLNGKEYKCKVSNKALPAPIEKTISKAKGQPREPQVYTLPPSRDELTKNQVSLTCLVKGF
no binding: all assays above
